Assay: yeast display, Sf9 membrane polyspecificity reagent, FACS + sequencing; frameworks hold sequencing errors
Method in brief: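 Using colony PCR, genes from sorted yeast display clones were amplified, then sequenced on MiSeq at 2 × 250 and filtered by CDR length. The clones had been stained with 10% biotinylated, detergent-solubilized Sf9 membrane reagent for 1 hour at 4 °C and sorted by FACS into low and high (top ~1%) gates on anti-HA and streptavidin fluorescence. Polyreactivity labels come from the gate of origin.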

Sequence | polyreactivity (PSR sort gate)
QVQLVESGGGLVQAGGSLRLSCAASGRTFGLNAMGWYRQAPGKERELVAAITSGGSTYYADSVKGRFTISRDNAKNTVYLQMNSLKPEDTAVYYCAARYWRSYGISDILSDVDYWGQGTQVTVSS | low polyreactivity
QVQLVESGGGLVQAGGSLRLSCAASGRTFGLNVMGWYRQAPGKERELVAAISRSGGSTYYADSVKGRFTISRDNAKNTVYLQMNSLKPEDTAVYYCAAVSRYYPYGYWGQGTQVTVSS | high polyreactivity
QVQLVESGGGLVQAGGSLRLSCAASGRTFGLYAMGWYRQAPGKERELVAAISYSGGRTYYADSVKGRFTISRDNAKKTVYLQRNSLKPEDTAVYYCNKAWFPYYYYRFDYWGQGTQVTVSS | high polyreactivity
QVQLVESGGGLVQAGGSLRLSCAASGRTFGLYAMGWYRQAPGKERELVASNTYSGGRTNYADSVKGRFTISRDNAKNTVYLQMNSLKPEDTAVYYCAASLWDDDSRLMYYWGQGTQVTVSS | high polyreactivity
QVQLVESGGGLVQAGGSLRLSCAASGRTFGLYTKAWYIQAPGKERELVAAISSGGITYYADSVKGRFTISRDNAKNTVYLQMNSLKPEDTAVYYCAADFRTTRRYNYRYNYWGQGTQVTVSS | high polyreactivity
QVQLVESGGGLVQAGGSLRLSCAASGRTFGNYAMGWSRQAPGKERELVAAITFRGGSTYYADSVKGRFTISRDNAKNTVYLQMNSLKPEDTAVYYCNAERYVGHTYFQFDYWGQGTQVTVSS | high polyreactivity
QVQLVESGGGLVQAGGSLRLSCAASGRTFGNYAMGWYRQAPGKERELVASITYTVGNTYYADSVKGRFTISRDNAKNTVYLQMNSLKPEDTAVYYCAADGFYLQFYHYDYWGQGTQVTVSS | low polyreactivity
QVQLVESGGGLVQAGGSLRLSCAASGRTFGPNAMGWYRQAPGKEMELVATITYIGGSTYYADSVKGRFTISRDNAKNTVYLQMNSLKPEDTAVYYCAKRGGSYKEGDSWGQGTQVTVSS | low polyreactivity
QVQLVESGGGLVQAGGSLRLSCAASGRTFGPYALGWYRQAPGKERELVATSSSNGASTYYADSVKGRFTISRDNAKNTVYLQMNSLKPEDTAVYYCAAEFHFWGYLYDYWGQGTQVTVSS | low polyreactivity
QVQLVESGGGLVQAGGSLRLSCAASGRTFGPYAMGWYRQAPGKEREFVAAISYSGGSTYYADSVKGRFTISRDNAKNTVYLQMNSLKPEDTAVYYCAAETYYGRIYWYIRDYWGQGTQVTVSS | low polyreactivity
QVQLVESGGGLVQAGGSLRLSCAASGRTFGPYAMGWYRQAPGKERELVAAISSSEGSTYYADSVKGRFTISRDNAKNTVYLQMNSLKPEDTAVYYCNARYYLWSTTRWYGYDYWGQGTQVTVSS | high polyreactivity
QVQLVESGGGLVQAGGSLRLSCAASGRTFGPYAMGWYRQAPGKERELVATISSNGASTYYADSVKGRFTISRDNAKNTVYLQMNSLKPEDTAVYYCAAEFHFWGYLYDYWGQGTQVTVSS | low polyreactivity
QVQLVESGGGLVQAGGSLRLSCAASGRTFGPYTMGWYRQAPGKEREFVAAINSSGSRTYYADSVKGRFTISRDNAKNTVYLQMNSLKPEDTAVYYCAAEAKWYYSWSYPYEGDYWGQGSQVTVSS | low polyreactivity
QVQLVESGGGLVQAGGSLRLSCAASGRTFGQNAMGWYRQAPGKERELVAAISASGSNTYYADSVKGRFTISRDHAKNTVYLQMNSLKPEDTAVYYCAKQVYRPGQQSRYDYWGQGTQVTVSS | low polyreactivity
QVQLVESGGGLVQAGGSLRLSCAASGRTFGQYAMGWYRQAPGKERELVAAISWGGGRTYYADSVKGRFTISRDNAKNTVYLQMNSLKPEDTAVYYCNAVYSPRYYVGGYDYWGQGTQVTVSS | high polyreactivity
QVQLVESGGGLVQAGGSLRLSCAASGRTFGRNALGWYRQAPGKEREFVAAISRRGDTTYYADSVKGRFTISRDNAKNTVYLQMNSLKPEDTAVYYCNADVIKDRFYWYYYWGQGTQVTVSS | low polyreactivity
QVQLVESGGGLVQAGGSLRLSCAASGRTFGRNAMGWYRQAPGKEMELVAAISWTGGNTYYADSVKGRFTISRDNAKNTVYLQMNSLKPEDTAVYYCAARGRYVTPQPSYDYWGQGTQVTVSS | high polyreactivity
QVQLVESGGGLVQAGGSLRLSCAASGRTFGRNAMGWYRQAPRKERELVAAISDRGVSTYYADSVKGRFTISRDNAKNTVYLQMNSLKPEDTAVYYCAAVFWVDILPGDYWGQGTQVTVSS | low polyreactivity
QVQLVESGGGLVQAGGSLRLSCAASGRTFGRYAMGWSRQAPGKERELVAAINRGGSTKYADSVKGRFTISRDNAKNTVYLQMNSLKPEDTAVYYCAKDRHPAVHYDYWGQGTQVTVSS | low polyreactivity
QVQLVESGGGLVQAGGSLRLSCAASGRTFGRYAMGWYRQAPGKEREFVASISRRGGSTNYADSVKGRFTISRDNAKNTVYLQMNSLKPEDTAVYYCAKRFTLPLSEYDYWGQGTQVTVSS | high polyreactivity

Sequence | polyreactivity (PSR sort gate)
QVQLVESGGGLVQAGGSLRLSCAASGRTFGRYAMGWYRQAPGKERELVAAISIRGGRTTYADSVKGRFTISRDNAKNTVYLQMNSLKPEDTAVSYCAKVISVRGGYGYWGQGTQVTVSS | high polyreactivity
QVQLVESGGGLVQAGGSLRLSCAASGRTFGRYAMGWYRQAPGKERELVAAITRGGSTNYADSVKGRFTISRDNAKNTVYLQMNSLKPEDTAVYYCAKSVRYRYDYWGQGTQVTVSS | high polyreactivity
QVQLVESGGGLVQAGGSLRLSCAASGRTFGRYAMGWYRQAPGKERELVATISVSSGSTYYADSVKGRFTISRDTAKNTVYLQMNSLKPEDTAVYYCNAVYGRQYRGYNYKYYYWGQGTQVTVSS | high polyreactivity
QVQLVESGGGLVQAGGSLRLSCAASGRTFGRYAMGWYRQAPGKERELVATITSGGSTNYADSVKGRFTITRDNAKNTVYLQMNSLKPEDTAVYYCAAEFSPSRWAYSEGALRYNYWGQGTQVTVSS | low polyreactivity
QVQLVESGGGLVQAGGSLRLSCAASGRTFGRYAMGWYRQAPWKERELVAVINGGGSTYYADSVKGRFTISRDNAKNTVYLQMNSLKPEDTAVDYCAVGGYTRTGGWFDYWGQGTQVTVSS | high polyreactivity
QVQLVESGGGLVQAGGSLRLSCAASGRTFGRYAMGWYRQATGKERELVAAISTGGRTYYADSVKGRFTISRDNAKNTVYLQMNSLKPEDTEVYYCNRVVVVGILEMGYWGQGTQVTVSS | low polyreactivity
QVQLVESGGGLVQAGGSLRLSCAASGRTFGRYARGWYRQAPGKETELVAAIRSGASTYYADSVKGRFTISRDNAKNTVYLQKNSLKPEDTAVYYCAVDTLQGARVTSPSGDYDYWGQGTQVTVSS | low polyreactivity
QVQLVESGGGLVQAGGSLRLSCAASGRTFGRYVMGWYRQAPGKERELVAAITSSSSSTYADSVKGRFTISRDNAKNTVHLEMNSLKPEDTAVYYCNKRFPSRHRPEYDYWGQGTQVTVSS | high polyreactivity
QVQLVESGGGLVQAGGSLRLSCAASGRTFGSNAMGWYRQAPGKERELVAAISFSGGSTYYADSVKGRFTISRDNAKNTVYLQMNSLKPEDTAVYYCAAEYPQKGDRGSRRRIDGYWGQGTQVTVSS | high polyreactivity
QVQLVESGGGLVQAGGSLRLSCAASGRTFGSNAMGWYRQAPGKERELVAAISLRGGRTYYADSVKGRFTISRDNAKNTVYLQMNSLKPEDTAVYYCNAVHYLYGARSRLTYDYWGQGTQVTVSS | high polyreactivity
QVQLVESGGGLVQAGGSLRLSCAASGRTFGSNAMGWYRQAPGKERELVAVISRRAGSTYADSVKGRFTISRDNAKNTVYLQMNSLKPEDTAVYYCATRWLYHQYYYWGQGTQVTVSS | high polyreactivity
QVQLVESGGGLVQAGGSLRLSCAASGRTFGSYAMGWNRQAPGKERELVAAISSSGGRTYYADSVKGRFTISRDNAKNTVYLQMNSLKPEDTGVYYCNADVQWNIWEYDYWGQGTQVTVSS | high polyreactivity
QVQLVESGGGLVQAGGSLRLSCAASGRTFGSYAMGWYRQAPGKEREFVASITGATTNYADSVKGRFTISRDNAKNTVYLQMNSLKQEDTAVYYCATDVGFGRKQRPHRPGYGYWGQGTQVTVSS | low polyreactivity
QVQLVESGGGLVQAGGSLRLSCAASGRTFGSYAMGWYRQAPGKERELVAAINWSGSSTYYADSVKGRFTISRDNAKNTVYLQMNSLKPEDTAVYYCAATPSFYRSYQGMDYWGQGTQVTVSS | high polyreactivity
QVQLVESGGGLVQAGGSLRLSCAASGRTFGSYAMGWYRQAPGKERELVAAISSGGRTYYADSVKGRFTISRDNAKNTVYLQMNSLKPEDTAVYYCAARLISYKTPGGYNYWGQGTQVTVSS | high polyreactivity
QVQLVESGGGLVQAGGSLRLSCAASGRTFGSYAMGWYRQAPGKERELVAAISVSGDSTFYADSVKGRFTISRDNAKNTVYLQMNSLKQEDTAVYYCAARDYVEFWGQGTQVTVSS | low polyreactivity
QVQLVESGGGLVQAGGSLRLSCAASGRTFGSYAMGWYRQAPGKERELVAAISYRGSTYYADSVKGRFTISRDNAKNTVYLQMNSLKPEDTAVYYCAARSYGGYGYWGQGTQVTVSS | high polyreactivity
QVQLVESGGGLVQAGGSLRLSCAASGRTFGSYVMGWYRQAPGKERELVATISRRGGTTYYADSVKGRYTISRDNAKNTVYLQMNSLKPEDTAVYYCAAKYFGTRYDYWGQGTQVTVSS | high polyreactivity
QVQLVESGGGLVQAGGSLRLSCAASGRTFGTNAMGWYRLAPGKEWELVASISGGTRTNYADSVKGRFTISRDNAKNTVYLQMNSLKPEDTAVYSCAAEVGLPTWYTLPVDDYDYWGQGTQVTVSS | low polyreactivity
QVQLVESGGGLVQAGGSLRLSCAASGRTFGTYDMGWYRQAPGKERELVAGINGSGGSTYYADSVKGRFTISRDNAKNTVYLQMNSLKPEDTAVYYCAADRRFSTYDYWGQGTQVTVSS | high polyreactivity
